Assay results as given in the RNAGym collection of RNA variant scans (doi:10.1093/molbev/msab373).

B1: Azoarcus group I ribozyme (parent)
chain: GUGCCUUGCGCCGGGAAACCACGCAAGGGAUGGUGUCAAAUUCGGCGAAACCUAAGCGCCCGCCCGGGCGUAUGGCAACGCCGAGCCAAGCUUCGGCGCCUGCGCCGAUGAAGGUGUAGAGACUAGACGGCACCCACCUAAGGCAAACGCUAUGGUGAAGGCAUAGUCCAGGGAGUGGCGAAAGUCACACAAACCGG

Variants of: B1
Assay: reverse-splicing fitness (ratio to wild type); higher = more active; in vitro selection; Mg2+ level not given
How it was run: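 An in vitro group I ribozyme library with randomized positions was T7-transcribed and gel-purified. In triplicate, 10 pmol RNA in EPPS pH 7.5 was reacted with 50 pmoles of a 30-nt RNA substrate for 1 h at 37 °C across several added MgCl2 levels (1–48 mM), then stopped with EDTA. Products were reverse transcribed from a substrate-complementary primer, PCR-amplified and sequenced (HiSeq 4000). Fitness is a variant's read proportion after selection over that before, normalised to wild type.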

Variant	reverse-splicing fitness
C82A A120U A145C C150A U176C	0.0051
C82A A120U A145C C150A U176G	0.00246
C82A A120U A145C C150A U176A	0.00439
C82A A120U C150A C169U U176C	0.00414
C82A A120U C150A C169U U176A	0.00391
C82A A120U C150A C169U U176G	0.00215
C82A A120G C150G C169G U176G	0.00432
C82A A120G C150G C169G U176C	0.00462
C82A A120G C150G C169G U176A	0.00669
C82A A120U A145G C169A U176G	0.00129
C82A A120U A145G C169A U176C	0.00257
C82A A120U A145G C169A U176A	0.00307
C82A A120U C150A C169A U176G	0.0024
C82A A120U C150A C169A U176A	0.00388
C82A A120U C150A C169A U176C	0.00234
C82A A120G C150U	0.0158
C82A A120G C150G	0.00747
C82A A120G C150A	0.0107
C82A A120U A145C C150U C169A U176G	0.002
C82A A120U A145C C150U C169A U176C	0.00251
C82A A120U A145C C150U C169A U176A	0.00195

Variant	reverse-splicing fitness
C82A A120U A145U C150A C169G U176G	0.00136
C82A A120U A145U C150A C169G U176C	0.00266
C82A A120U A145U C150A C169G U176A	0.00237
C82A A120G A145U C150G C169U U176G	0.00511
C82A A120G A145U C150G C169U U176C	0.0127
C82A A120G A145U C150G C169U U176A	0.0124
C82A A120U C150G C169U U176A	0.00325
C82A A120U C150G C169U U176C	0.00369
C82A A120U C150G C169U U176G	0.00296
C82A A120G A145U C150G U176G	0.00365
C82A A120G A145U C150G U176C	0.00721
C82A A120G A145U C150G U176A	0.00629
C82A A120U C150G C169A	0.00708
C82A A120U C150G C169G	0.00634
C82A A120U C150G C169U	0.00543
C82A A120G C150A C169U U176C	0.0215
C82A A120G C150A C169U U176A	0.0218
C82A A120G C150A C169U U176G	0.00815
C82A A120G C169U U176A	0.0233
C82A A120G C169U U176G	0.00475
C82A A120G C169U U176C	0.0175

Variant	reverse-splicing fitness
C82A A120U A145C C150G C169A U176A	0.00254
C82A A120U A145C C150G C169A U176C	0.00155
C82A A120U A145C C150G C169A U176G	0.00213
C82A A120G C150U C169G U176G	0.00468
C82A A120G C150U C169G U176A	0.0162
C82A A120G C150U C169G U176C	0.0193
C82A A120U A145C C150G	0.0172
C82A A120U A145C C150U	0.0294
C82A A120U A145C C150A	0.00898
C82A A120U A145U	0.148
C82A A120U A145G	0.142
C82A A120U A145C	0.128
C82A A120G A145U C150G C169A U176G	0.00378
C82A A120G A145U C150G C169A U176C	0.01
C82A A120G A145U C150G C169A U176A	0.0097
C82A A120U A145G C150G C169A	0.0097
C82A A120U A145G C150G C169U	0.00784
C82A A120U A145G C150G C169G	0.00686
C82A A120G A145U C150U C169G U176A	0.0114
C82A A120G A145U C150U C169G U176C	0.0154
C82A A120G A145U C150U C169G U176G	0.00454

Variant	reverse-splicing fitness
C82A A120U A145U U176G	0.01
C82A A120U A145U U176C	0.0582
C82A A120U A145U U176A	0.036
C82A A120U A145C C150G C169G U176A	0.00256
C82A A120U A145C C150G C169G U176G	0.00211
C82A A120U A145C C150G C169G U176C	0.00192
C82A A120U A145G C169U	0.0064
C82A A120U A145G C169G	0.00528
C82A A120U A145G C169A	0.00287
C82A A120U A145G U176C	0.0599
C82A A120U A145G U176G	0.0073
C82A A120U A145G U176A	0.0348
C82A A120U A145G C150U C169U U176A	0.00414
C82A A120U A145G C150U C169U U176G	0.00226
C82A A120U A145G C150U C169U U176C	0.00493
C82A A120U C150A C169G U176A	0.00593
C82A A120U C150A C169G U176G	0.00162
C82A A120U C150A C169G U176C	0.0032
C82A A120U A145U C150A U176G	0.00276
C82A A120U A145U C150A U176A	0.00611
C82A A120U A145U C150A U176C	0.0092
